Measurements as given in publication PMC4316792, “The dehydrogenase region of the NADPH oxidase component Nox2 acts as a protein disulfide isomerase (PDI) resembling PDIA3 with a role in the binding of the activator protein p67^phox” (Frontiers in Chemistry, 2015).

B1: p67^phox(1–212) [not stated] / Nox2 peptide 24 (357–371), dithiol form [modified: biotin on the N-terminus; C-terminal amide; cysteines 369 and 371 in the dithiol form; biotin on the N-terminus; C-terminal … (parent)
chain 1: MSLVEAISLWNEGVLAADKKDWKGALDAFSAVQDPHSRICFNIGCMYTILKNMTEAEKAFTRSINRDKHLAVAYFQRGMLYYQTEKYDLAIKDLKEALIQLRGNQLIDYKILGLQFKLFACEVLYNIAFMYAKKEEWKKAEEQLALATSMKSEPRHSKIDKAMECVWKQKLYEPVVIPVGKLFRPNERQVAQLAKKDYLGKATVVASVVDQD
chain 2: SGSGIVGDWTEGLFNACGC

Variants of: B1
Test: peptide-protein binding assay (surface-attached biotinylated peptide, protein in solution, kinetic TMB oxidation read-out)
Conditions: with Nox2 peptide 24 (357–371), 10 min kinetic experiment, read off a plot

Variant	response (Absorbance (650 nm) x 1000/min)
chain 1 C40S C45S C121S C165S	10
